Patent publication US20060021091, “Maize bZIP transcription factors and genes encoding the same and use thereof” (published 2006)

Legend:
Conditions in all cases: tags: GST (pGEX4T-1); label: 32P 5' end (EMSA); annealed oligos with 3-nt overhangs, ligated as 4mer
[1] = molecular target: T1, ABP9 (Zea mays); assay: EMSA; 25 mM HEPES-KOH pH 7.6, 50 mM KCl, 10% glycerol, DTT, on ice
T1 chain: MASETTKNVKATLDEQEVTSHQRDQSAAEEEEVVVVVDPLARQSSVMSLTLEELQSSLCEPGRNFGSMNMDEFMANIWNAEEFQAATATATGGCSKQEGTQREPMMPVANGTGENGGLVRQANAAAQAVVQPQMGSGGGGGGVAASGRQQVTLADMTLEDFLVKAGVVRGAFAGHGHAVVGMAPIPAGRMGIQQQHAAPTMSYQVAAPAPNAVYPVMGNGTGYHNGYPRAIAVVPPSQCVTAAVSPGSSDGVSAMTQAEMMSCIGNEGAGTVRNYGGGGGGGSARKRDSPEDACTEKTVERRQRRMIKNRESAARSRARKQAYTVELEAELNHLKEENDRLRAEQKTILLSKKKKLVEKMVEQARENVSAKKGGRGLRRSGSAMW
Procedure: (§1) Add 4 μl of 5×binding buffer (125 mM HEPES-KOH pH7.6, 50% glycerol, 250 mM KC1). Add 4 μg (9 μl) of each of the proteins ABP2, ABP4, ABP9 and GST. Add 1 μl of 1M DTT, 1 μl of probe of the above-labeled ABRE (or InABRE) and 4 μl of H₂O. Incubate on ice for 30 minutes. Add 3 μl of sample buffer (0.025% bromophenol blue in sterile H₂O) and perform polyacrylamide gel eletrophoresis analysis.
(§2) Set up the gel mixture of 9 ml of 30% acrylamide, 5 ml of 10×eletrophoresis buffer (142.7 g/L glycin, 3.92 g/L EDTA, 30.28 g/L Tris), 2.5 ml of 50% glycerol, 33 ml of deionized water, 400 μl of 10% APS, and 25 μl of TEMED. After completion of polymerization, perfom gel eletrophoresis with 1×eletrophoresis buffer, including pre-running for 10 minutes (300V), loading the samples and eletrophoresis for 1 hour (300V). Stick the gel with filter paper to peel off. Seal the peeled gel with Saran wrap and expose to X ray film for 1 hour. Wash the film, develop for 2 minutes and fix for 5 minutes. […] This means that the products of the genes ABP2, ABP4, and ABP9 also have the ABRE binding specificity in vitro.

[2] = molecular target: T2, ABP4 (Zea mays); assay: as above
T2 chain: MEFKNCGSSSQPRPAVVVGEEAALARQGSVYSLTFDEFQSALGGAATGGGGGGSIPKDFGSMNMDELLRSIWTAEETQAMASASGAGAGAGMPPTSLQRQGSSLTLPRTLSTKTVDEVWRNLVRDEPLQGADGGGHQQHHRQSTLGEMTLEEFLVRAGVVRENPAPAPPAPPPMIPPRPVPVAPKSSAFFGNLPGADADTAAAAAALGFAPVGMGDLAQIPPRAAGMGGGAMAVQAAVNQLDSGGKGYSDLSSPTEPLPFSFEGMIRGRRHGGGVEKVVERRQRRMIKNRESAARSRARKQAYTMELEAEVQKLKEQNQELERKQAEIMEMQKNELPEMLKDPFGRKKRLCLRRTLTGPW
Procedure: as §1, §2

[3] = molecular target: T3, ABP2 (Zea mays); assay: as above
T3 chain: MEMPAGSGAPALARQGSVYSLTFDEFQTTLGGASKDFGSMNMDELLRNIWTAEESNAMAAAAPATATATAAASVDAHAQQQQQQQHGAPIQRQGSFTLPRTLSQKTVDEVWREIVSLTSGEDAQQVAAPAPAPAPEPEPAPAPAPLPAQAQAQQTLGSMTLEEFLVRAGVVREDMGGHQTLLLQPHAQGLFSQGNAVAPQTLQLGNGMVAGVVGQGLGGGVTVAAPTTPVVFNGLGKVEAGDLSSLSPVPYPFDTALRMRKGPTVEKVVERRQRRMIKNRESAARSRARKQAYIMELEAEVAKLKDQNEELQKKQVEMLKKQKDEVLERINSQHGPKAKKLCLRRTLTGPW
Procedure: as §1, §2

[4] = molecular target: T1, ABP9; assay: EMSA; no retarded band
Procedure: as §1, §2

[5] = molecular target: T2, ABP4; assay: EMSA; no retarded band
Procedure: as §1, §2

[6] = molecular target: T3, ABP2; assay: EMSA; no retarded band
Procedure: as §1, §2

B1: ABRE (dsDNA)
DNA 1: GAAGTCCACGTGGAGGTGG
DNA 2: TCCCACCTCCACGTGGACT
binding result [1]: binds
binding result [2]: binds
binding result [3]: binds

B2: mABRE (dsDNA)
DNA 1: GAAGTAACATGTTCGGTGG
DNA 2: TCCCACCGAACATGTTACT
binding result [4]: no binding
binding result [5]: no binding
binding result [6]: no binding
